Experimental data reported in publication PMC9340540 (2022).

Biological target: T1, CHN-1 (C. elegans)
T1 chain: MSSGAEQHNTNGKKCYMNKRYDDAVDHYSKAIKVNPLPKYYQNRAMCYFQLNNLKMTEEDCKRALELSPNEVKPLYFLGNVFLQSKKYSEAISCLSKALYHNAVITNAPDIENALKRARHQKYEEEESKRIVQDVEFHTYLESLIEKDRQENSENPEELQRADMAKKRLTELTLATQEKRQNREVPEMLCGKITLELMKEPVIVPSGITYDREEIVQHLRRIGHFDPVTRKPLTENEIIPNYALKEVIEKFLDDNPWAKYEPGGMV
Assay: ELISA

B1: UFD-2 (enzyme)
chain: MIEDEKAGLQPMDISDASVFFFQADVESKDFLTSLFDCEGKSDDRMLRYADAIIDVQNLNFDVSPQCLQSNIAEIITKFVLLSQDGSRRGLSRSFNFIDPDIIAGCREEDAIEFLLINFVRCHHELGKSGTSNCYKKTLESTRKAVFSVFVMIQRGYLESQLRSQHASLVFTKRLLEDTVSNVFLRTLVEYLASTDECDEDAITETFNPIFGILRSGIICQRFEDNKDEIVRQILRVMNLLLSIRLPSNGPRPLSNLLVNREDFLPTPSEKIQGREFGLMSFLGPFFSYGLESSARRPNHRVFVDCEEDARKYDGSVNTEQKLYFQRMDPIRTMLHQLMLPLASDQGSRNKTLRWIATIISTNDIRTRSHYDPSDVLCDHYMTNFLSVMYMFSEKIDLSKIIVDYPFLPSSLINISKETRLKMDESGAVAFASQFADRPDEYHFSTVCFFLTIAAQRLVIPPLMNQISEYSRHLKELKHKINALKEKLNTVSGFERAEVEKKLNYETEHWKLMSRHLLCVKTQAQDPALMASSMDFVDKQMKFILNLLCDNLDLLGDDSQLPTEVSQMFCALPEYFLEDALDFYIFAISNGMKLLMERNADWISRLTVLFTQYHYIKSPFLVSKLVRVLSSIQPPLWFNVVRLRMAQENLLMCMIKFYSDFEDNGDFYEKFNVRGNIQYMLEKMEEDMFYKGKFMDMARECGAEFIRFVNMVINDATWCIDESLSGLKSIHDVEKKMANKVEWDNTDQEIRNQDLGVYEEAKRKVKGWLGTAKSNLKLLLSITVNSPEPFRTPVLGERLAAMLNHNLSQLIGSKASELKVKDPRSYGWEPREFVSLLISIYLKLNMPAFVKYIAYDERTYSPEFFHNAIECMRKNSIVGFSQLESFEHLAEDVKKEYEAKAELEEEYDDVPEEFKDPIMDAIMVDPVKLPSGHVMDRAVIERHLLSTPNNPFNRAPLSHNELSPDSELKAKIQEWICQKRNSKK
Q: How did the Kd turn out when B1 was run?
A: 37.8 nM

B2: HSP-1::6xHis (natural protein)
chain: not shown
Q: For B2, which Kd is on record?
A: 12.2 nM
